Tests used:
Conditions in all cases: both partners purified
[1] = target: T1, E. coli β-clamp labelled with RED-maleimide dye (MST) (E. coli, UniProt P0A988 1-366, RED-maleimide fluorescent dye (RED-Maleimide Labelling Kit, NanoTemper); site not stated); assay: MST; β-clamp labelled with RED-maleimide (3 nM stock, diluted 1:1 with ligand); peptides in 16 1:1 dilutions from 500 μM to 15 nM; 50 mM Tris-HCl pH 7.5, 150 mM NaCl, 10 mM MgCl2, 2% fetal bovine serum; Monolith NT.115; change of fluorescence analysed
T1 construct: β-clamp (β subunit of DNA polymerase III), product of the dnaN gene, E. coli; it may or may not be the same His-tagged pET-16b construct as m1; also called fluorescent labeled β-clamp; Purified E.coli β-clamp; source: labelled with the RED-Maleimide Labelling Kit

[2] = target: T2, E. coli β-clamp V151A, His-tagged (E. coli, UniProt P0A988 1-366, V151A); assay: SPR; WT or mutant β-clamp immobilised by amine coupling on CM5 (about 2000 RU); octamer peptides at 4-128 μM, single-cycle; 25°C, 30 μl/min; PBS P+ (20 mM phosphate pH 7.4, 3 mM KCl, 137 mM NaCl, 0.05% P20); sensorgrams normalised to the immobilised level
T2 construct: β-clamp, product of the dnaN gene, E. coli, with V151A; Made by site-directed mutagenesis of the plasmid of m1

[3] = target: T3, E. coli β-clamp P242D, His-tagged (E. coli, UniProt P0A988 1-366, P242D); assay: as above
T3 construct: β-clamp, product of the dnaN gene, E. coli, with P242D; Made by site-directed mutagenesis of the plasmid of m1

[4] = target: T4, E. coli β-clamp M362D, His-tagged (E. coli, UniProt P0A988 1-366, M362D); assay: as above
T4 construct: β-clamp, product of the dnaN gene, E. coli, with M362D; Made by site-directed mutagenesis of the plasmid of m1

[5] = target: T5, E. coli β-clamp H148K, His-tagged (E. coli, UniProt P0A988 1-366, H148K); assay: as above
T5 construct: β-clamp, product of the dnaN gene, E. coli, with H148K; Made by site-directed mutagenesis of the plasmid of m1

[6] = target: T6, E. coli β-clamp P363D, His-tagged (E. coli, UniProt P0A988 1-366, P363D); assay: as above
T6 construct: β-clamp, product of the dnaN gene, E. coli, with P363D; Made by site-directed mutagenesis of the plasmid of m1

[7] = target: T7, E. coli β-clamp, wild type, His-tagged (E. coli, UniProt P0A988 1-366); assay: NMR titration; 1D 1H NMR of the peptide with sub-stoichiometric β-clamp (100 or 50 μM peptide added 5 or 20 μM β-clamp); line broadening or loss of signal read; 298 K, 20 mM NaH2PO4, 100 mM NaCl, pH 7.4
T7 construct: β-clamp (β subunit of DNA polymerase III), product of the dnaN gene, E. coli; no cleavage is described; also called WT β-clamp; DNA sliding clamp; source: for NMR HisTrap FF and Superdex 200 SEC

Binder	Kd [1] [µM]	binding result [7]	other results
Ac-MDRFSLKWKKKRKIRRRRRRRRRRR-NH2 (also: TFA salt, APIM motif RFSLK, linker WKKKRKI, cell penetrating R11; TFA salt, >90% pure; also called RFSLK-peptide; source: synthetic peptide; bought: Innovagen, Sweden) [Cell penetrating APIM-peptide RFSLK (Ac-MD-RFSLK-WKKKRKI-RRRRRRRRRRR)]	< 50	–	–
Ac-MDRWLVKW-NH2 (also: TFA salt, APIM motif RWLVK without the cell penetrating part; also called octamer peptide containing RWLVK; source: synthetic peptide; bought: Innovagen, Sweden) [Octamer APIM peptide RWLVK (Ac-MDRWLVKW)]	–	binds	binding result [2]: binds; binding result [3]: binds; binding result [4]: binds; binding result [5]: binds; binding result [6]: binds
Ac-MDRWLVKWKKKRKIRRRRRRRRRRR-NH2 (also: TFA salt, APIM motif RWLVK, linker WKKKRKI, cell penetrating R11; TFA salt, >90% pure; also called RWLVK-peptide; cell penetrating RWLVK-peptide; source: synthetic peptide; bought: Innovagen, Sweden) [Cell penetrating APIM-peptide RWLVK (Ac-MD-RWLVK-WKKKRKI-RRRRRRRRRRR)]	< 50	–	–
Ac-MDRALVKWKKKRKIRRRRRRRRRRR-NH2 (also: TFA salt, mutated APIM RALVK, linker WKKKRKI, cell penetrating R11; TFA salt, >90% pure; also called RALVK-peptide; source: synthetic peptide; bought: Innovagen, Sweden) [Cell penetrating peptide with mutated APIM RALVK (Ac-MD-RALVK-WKKKRKI-RRRRRRRRRRR)]	> 750	–	–
Ac-EQVELEFD-NH2 (also: TFA salt, also called Pol III peptide; source: synthetic peptide; bought: Innovagen, Sweden) [Pol III β-clamp binding peptide (Ac-EQVELEFD)]	–	binds	–

From publication PMC7261172, “Peptides containing the PCNA interacting motif APIM bind to the β-clamp and inhibit bacterial growth and mutagenesis” (Nucleic Acids Research, 2020)
